Results from patent publication US20260117202A1.
Where “and” joins values, the source holds several entries; their conditions need not be identical. Equal values may be shown once.

What was measured:
[1] = molecular target: FHCS-1 (RSV strain A2) (UniProt P03420); experiment: ELISA; F coated 5000 ng/ml; stored -80° C.
[2] = molecular target: FHCS-2 (RSV strain A2) (UniProt P03420); experiment: ELISA; F coated 5000 ng/ml; stored -80° C.
[3] = molecular target: FHCS-4 (RSV strain A2) (UniProt P03420); experiment: ELISA; F coated 5000 ng/ml; stored -80° C.
[4] = molecular target: FHM-15 (RSV strain A2) (UniProt P03420); experiment: sandwich ELISA, AM14 coated, supernatant 1:10
[5] = molecular target: FHM-18 (RSV strain A2) (UniProt P03420); experiment: sandwich ELISA, AM14 coated, supernatant 1:10
[6] = molecular target: FHM-23 (RSV strain A2) (UniProt P03420); experiment: sandwich ELISA, AM14 coated, supernatant 1:10
[7] = molecular target: FHM-9 (RSV strain A2) (UniProt P03420); experiment: sandwich ELISA, AM14 coated, supernatant 1:10
[8] = molecular target: FHS-11 (RSV strain A2) (UniProt P03420); experiment: sandwich ELISA, AM14 coated, supernatant 1:10
[9] = molecular target: FHS-13 (RSV strain A2) (UniProt P03420); experiment: sandwich ELISA, AM14 coated, supernatant 1:10
[10] = molecular target: FHS-17 (RSV strain A2) (UniProt P03420); experiment: sandwich ELISA, AM14 coated, supernatant 1:10
[11] = molecular target: FHS-25 (RSV strain A2) (UniProt P03420); experiment: sandwich ELISA, AM14 coated, supernatant 1:10
[12] = molecular target: FHS-29 (RSV strain A2) (UniProt P03420); experiment: sandwich ELISA, AM14 coated, supernatant 1:10
[13] = molecular target: FHS-3 (RSV strain A2) (UniProt P03420); experiment: sandwich ELISA, AM14 coated, supernatant 1:10
[14] = molecular target: FHS-35 (RSV strain A2) (UniProt P03420); experiment: sandwich ELISA, AM14 coated, supernatant 1:10
[15] = molecular target: FHS-37 (RSV strain A2) (UniProt P03420); experiment: sandwich ELISA, AM14 coated, supernatant 1:10
[16] = molecular target: FHS-42 (RSV strain A2) (UniProt P03420); experiment: sandwich ELISA, AM14 coated, supernatant 1:10
[17] = molecular target: FHS-44 (RSV strain A2) (UniProt P03420); experiment: sandwich ELISA, AM14 coated, supernatant 1:10
[18] = molecular target: FHS-48 (RSV strain A2) (UniProt P03420); experiment: sandwich ELISA, AM14 coated, supernatant 1:10
[19] = molecular target: FHS-52 (RSV strain A2) (UniProt P03420); experiment: sandwich ELISA, AM14 coated, supernatant 1:10
[20] = molecular target: FHS-56 (RSV strain A2) (UniProt P03420); experiment: sandwich ELISA, AM14 coated, supernatant 1:10
[21] = molecular target: FHS-64 (RSV strain A2) (UniProt P03420); experiment: sandwich ELISA, AM14 coated, supernatant 1:10
[22] = molecular target: FHS-69 (RSV strain A2) (UniProt P03420); experiment: sandwich ELISA, AM14 coated, supernatant 1:10
[23] = molecular target: FHS-71 (RSV strain A2) (UniProt P03420); experiment: sandwich ELISA, AM14 coated, supernatant 1:10
[24] = molecular target: FHS-78 (RSV strain A2) (UniProt P03420); experiment: sandwich ELISA, AM14 coated, supernatant 1:10
[25] = molecular target: FHS-8 (RSV strain A2) (UniProt P03420); experiment: sandwich ELISA, AM14 coated, supernatant 1:10
[26] = molecular target: FHS-86 (RSV strain A2) (UniProt P03420); experiment: sandwich ELISA, AM14 coated, supernatant 1:10
[27] = molecular target: FHS-87 (RSV strain A2) (UniProt P03420); experiment: sandwich ELISA, AM14 coated, supernatant 1:10
[28] = molecular target: FHS-89 (RSV strain A2) (UniProt P03420); experiment: sandwich ELISA, AM14 coated, supernatant 1:10
[29] = molecular target: FHS-9 (RSV strain A2) (UniProt P03420); experiment: sandwich ELISA, AM14 coated, supernatant 1:10
[30] = molecular target: FHS-93 (RSV strain A2) (UniProt P03420); experiment: sandwich ELISA, AM14 coated, supernatant 1:10
[31] = molecular target: FHS-94 (RSV strain A2) (UniProt P03420); experiment: sandwich ELISA, AM14 coated, supernatant 1:10

Question: How did the OD value [1] turn out when AM14 monoclonal antibody was run?
Answer: 0.902 OD and 0.775 OD

Question: And the OD value [2]?
Answer: 0.985 OD and 0.796 OD

Question: And the OD value [3]?
Answer: 0.252 OD and 0.209 OD

Question: And the OD value [4]?
Answer: 1.5 OD

Question: And the OD value [5]?
Answer: 1.8 OD

Question: And the OD value [6]?
Answer: 1.89 OD

Question: And the OD value [7]?
Answer: 2.12 OD

Question: What about the OD value [8] of the same substance?
Answer: 2.04 OD

Question: And the OD value [9]?
Answer: 0.013 OD

Question: What about the OD value [10] of the same substance?
Answer: 0.009 OD

Question: What about the OD value [11] of the same substance?
Answer: 0.007 OD

Question: What about the OD value [12] of the same substance?
Answer: 0.007 OD

Question: What about the OD value [13] of the same substance?
Answer: 0.076 OD

Question: And the OD value [14]?
Answer: 0.007 OD

Question: What about the OD value [15] of the same substance?
Answer: 0.007 OD

Question: What about the OD value [16] of the same substance?
Answer: 0.01 OD

Question: What about the OD value [17] of the same substance?
Answer: 0.039 OD

Question: And the OD value [18]?
Answer: 2.42 OD

Question: And the OD value [19]?
Answer: 0.007 OD

Question: What about the OD value [20] of the same substance?
Answer: 0.009 OD

Question: What about the OD value [21] of the same substance?
Answer: 0.008 OD

Question: What about the OD value [22] of the same substance?
Answer: 1.88 OD

Question: What about the OD value [23] of the same substance?
Answer: 0.012 OD

Question: And the OD value [24]?
Answer: 1.24 OD

Question: And the OD value [25]?
Answer: 0.013 OD

Question: What about the OD value [26] of the same substance?
Answer: 0.062 OD

Question: And the OD value [27]?
Answer: 0.239 OD

Question: And the OD value [28]?
Answer: 0.006 OD

Question: And the OD value [29]?
Answer: 0.009 OD

Question: And the OD value [30]?
Answer: 0.009 OD

Question: What about the OD value [31] of the same substance?
Answer: 0.009 OD
